Target: T1, GFP-TBK1 (UniProt Q9UHD2 1-729)
T1 construct: TBK1, insect codon optimized gene from GenScript; source: Sf9, purified (Glutathione Sepharose, TEV cleavage, Superdex 200)
Experiment: microscopy-based bead protein-protein interaction assay; GST-4xUb (10 uM) on Glutathione Sepharose beads with OPTN S177D S473D 500 nM, GFP-TBK1 500 nM and PI3Kc1-mCh 200 nM; 25 mM TRIS-Cl pH 7.5, 150 mM NaCl, 1 mM DTT; 30 min, confocal
Settings: both partners purified

B1: OPTN S2D (S177D, S473D) (natural protein, UniProt Q96CV9 1-577, looked up)
chain: MSHQPLSCLTEKEDSPSESTGNGPPHLAHPNLDTFTPEELLQQMKELLTENHQLKEAMKLNNQAMKGRFEELSAWTEKQKEERQFFEIQSKEAKERLMALSHENEKLKEELGKLKGKSERSSEDPTDDSRLPRAEAEQEKDQLRTQVVRLQAEKADLLGIVSELQLKLNSSGSSEDDFVEIRMAEGEAEGSVKEIKHSPGPTRTVSTGTALSKYRSRSADGAKNYFEHEELTVSQLLLCLREGNQKVERLEVALKEAKERVSDFEKKTSNRSEIETQTEGSTEKENDEEKGPETVGSEVEALNLQVTSLFKELQEAHTKLSEAELMKKRLQEKCQALERKNSAIPSELNEKQELVYTNKKLELQVESMLSEIKMEQAKTEDEKSKLTVLQMTHNKLLQEHNNALKTIEELTRKESEKVDRAVLKELSEKLELAEKALASKQLQMDEMKQTIAKQEEDLETMTILRAQMEVYCDDFHAERAAREKIHEEKEQLALQLAVLLKENDAFEDGGRQSLMEMQSRHGARTSDSDQQAYLVQRGAEDRDWRQQRNIPIHSCPKCGEVLPDIDTLQIHVMDCII
notes: optineurin (OPTN), TBK1 phospho-mimetic form; pGST2-GST-TEV-OPTN(S177D S473D), derived from vectors of Chang et al., 2021; also called OPTN S177D S473D; phosphomimetic OPTN S2D; source: E. coli Rosetta pLySS, purified (Glutathione Sepharose, TEV cleavage, Superdex 200); not shown: GST, N-terminal, cleaved
binding result: binds

Reference: article doi:10.1101/2022.08.14.503930 (bioRxiv, 2022)
